The target in assay [1] is fluorescently labeled human H2a(G129C)-H2b dimer (human) (UniProt P04908). In words: MST.
In assay [2] the target is human histone (H3-H4)2 tetramer (human) (UniProt P68431). Briefly: MST.

In general, Kd refers to the constant that tells how readily two partners part at equilibrium.

As for “αSyn(1-131) (from UniProt P37840 1-131) (domain or fragment)”, the Kd in assay [1] turned out to be 32400 nM.
On to “αSyn(1-103) (from UniProt P37840 1-103) (domain or fragment)”, for which the Kd in assay [2] is 107 nM.
In assay [1], “αSyn(121-140) peptide (from UniProt P37840 121-140)” gave a KD of one of two binding sites of 500 nM and a KD of the other of two binding sites of 2600 nM.
